Measured values from patent US20180271992A1.
Each block holds one molecule with its values, some of them ahead of it.

Legend:
human Trop-2 (human) [1] = molecular target: human Trop-2 (human) (UniProt P09758); test: cell binding on NCI-N87 cells, anti-mouse-HRP secondary, luminescence
human Trop-2 (human) [2] = molecular target: human Trop-2 (human) (UniProt P09758); test: cell binding on NCI-N87 cells, maximum binding compared to murine RS7
human Trop-2 (human) [3] = molecular target: human Trop-2 (human) (UniProt P09758); test: cell binding assay on Trop-2 expressing cells, cell line not named

human Trop-2 (human), sequence (P09758 27-323): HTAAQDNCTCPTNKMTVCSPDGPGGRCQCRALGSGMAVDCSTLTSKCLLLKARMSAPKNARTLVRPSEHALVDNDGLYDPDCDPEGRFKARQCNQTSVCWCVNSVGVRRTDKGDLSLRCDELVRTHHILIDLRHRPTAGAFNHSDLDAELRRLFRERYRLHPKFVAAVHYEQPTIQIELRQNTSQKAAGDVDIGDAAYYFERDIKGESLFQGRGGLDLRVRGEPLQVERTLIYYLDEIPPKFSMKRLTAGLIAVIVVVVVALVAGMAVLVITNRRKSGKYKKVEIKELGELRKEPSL

Molecule: 162-46.2 murine monoclonal antibody against human Trop-2
BMax (maximum binding) (relative luminescent units) (human Trop-2 (human) [1]): 8470 | reduction of maximum binding relative to RS7 (human Trop-2 (human) [2]): 25%

Molecule: hRS7-CL2A-SN-38 antibody-drug conjugate
Kd (human Trop-2 (human) [3]): 1.2 nM

Results, then the molecule that gave them:

BMax (maximum binding) (relative luminescent units) (human Trop-2 (human) [1]): 6020 | Kd (human Trop-2 (human) [1]): 0.49 nM | reduction of maximum binding relative to RS7 (human Trop-2 (human) [2]): 50%
Molecule: MAB650 murine monoclonal antibody against human Trop-2

Kd (human Trop-2 (human) [3]): 1.2 nM
B1: hRS7-CL2-SN-38 antibody-drug conjugate (antibody, INN chains, looked up, V domains shown)
VH: QVQLQQSGSELKKPGASVKVSCKASGYTFTNYGMNWVKQAPGQGLKWMGWINTYTGEPTYTDDFKGRFAFSLDTSVSTAYLQISSLKADDTAVYFCARGGFGSSYWYFDVWGQGSLVTVSS
VL: DIQLTQSPSSLSASVGDRVSITCKASQDVSIAVAWYQQKPGKAPKLLIYSASYRYTGVPDRFSGSGSGTDFTLTISSLQPEDFAVYYCQQHYITPLTFGAGTKVEIK
modifications: SN-38 via CL2 linker
